Experimental data: paper PMC3988174

How the values were obtained:
[1] = biological target: atToc132 G-domain bait (Arabidopsis thaliana) (UniProt Q9SLF3); test: two-hybrid; pairwise split-ubiquitin yeast two-hybrid of isolated NubG-preys with Toc159G, Toc132G or Toc132AG bait in NMY51; growth on SD-LWHA (3-AT) and quantitative β-Gal assay, activity relative to a reference bait set to 100%
[2] = biological target: atToc132 A- plus G-domains bait (Arabidopsis thaliana) (UniProt Q9SLF3); test: as above
Chain of atToc132 A- plus G-domains bait (Arabidopsis thaliana) (Q9SLF3 1-794): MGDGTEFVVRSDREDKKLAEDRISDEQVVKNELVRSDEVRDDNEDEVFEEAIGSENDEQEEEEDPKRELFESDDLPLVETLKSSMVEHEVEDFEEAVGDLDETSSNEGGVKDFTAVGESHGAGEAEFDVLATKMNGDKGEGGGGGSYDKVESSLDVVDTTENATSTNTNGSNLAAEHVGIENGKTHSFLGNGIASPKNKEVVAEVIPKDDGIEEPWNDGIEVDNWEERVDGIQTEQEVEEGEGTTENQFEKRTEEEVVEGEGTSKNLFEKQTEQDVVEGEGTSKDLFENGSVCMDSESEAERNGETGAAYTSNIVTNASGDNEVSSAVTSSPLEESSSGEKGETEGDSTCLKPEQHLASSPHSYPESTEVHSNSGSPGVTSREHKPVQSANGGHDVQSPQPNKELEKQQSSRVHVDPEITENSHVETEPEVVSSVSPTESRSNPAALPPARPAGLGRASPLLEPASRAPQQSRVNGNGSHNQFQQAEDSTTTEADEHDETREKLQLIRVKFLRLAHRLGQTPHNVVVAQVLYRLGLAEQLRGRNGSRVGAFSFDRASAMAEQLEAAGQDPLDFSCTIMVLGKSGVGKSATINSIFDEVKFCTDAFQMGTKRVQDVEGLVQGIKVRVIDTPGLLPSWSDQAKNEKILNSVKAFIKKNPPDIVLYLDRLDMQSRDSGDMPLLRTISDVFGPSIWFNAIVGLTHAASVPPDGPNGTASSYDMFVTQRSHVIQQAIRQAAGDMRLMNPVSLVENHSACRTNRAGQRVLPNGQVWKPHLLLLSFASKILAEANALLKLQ

[3] = biological target: atToc159 G-domain bait (Arabidopsis thaliana) (UniProt O81283); test: as above
Chain of atToc159 G-domain bait (Arabidopsis thaliana) (O81283 728-1092): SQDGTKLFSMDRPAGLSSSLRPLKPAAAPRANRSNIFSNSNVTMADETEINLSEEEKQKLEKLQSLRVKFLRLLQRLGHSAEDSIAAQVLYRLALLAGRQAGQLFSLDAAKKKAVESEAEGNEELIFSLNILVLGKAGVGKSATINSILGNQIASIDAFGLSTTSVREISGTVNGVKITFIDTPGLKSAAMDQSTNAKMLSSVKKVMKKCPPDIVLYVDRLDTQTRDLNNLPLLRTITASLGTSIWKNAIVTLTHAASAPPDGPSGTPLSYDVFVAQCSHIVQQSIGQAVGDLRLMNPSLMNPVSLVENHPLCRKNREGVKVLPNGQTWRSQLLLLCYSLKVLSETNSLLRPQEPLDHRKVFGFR

[4] = biological target: T1, FNR1(TP)-DHFRHis (Arabidopsis thaliana | not stated); test: pull-down; solid phase binding assay: His-tagged TP-DHFR or DHFR immobilised on Ni-NTA resin (up to 800 pmol), incubated with 35S-labelled in vitro translated receptor, 25°C, 30 min, 50 mM Hepes-KOH pH 7.5, 5 mM MgCl2, 40 mM KOAc, 0.1% Triton X-100, 40 mM imidazole, 0.1 mM GTP; phosphorimager
T1 sequence (Q9FKW6 whole entry, looked up): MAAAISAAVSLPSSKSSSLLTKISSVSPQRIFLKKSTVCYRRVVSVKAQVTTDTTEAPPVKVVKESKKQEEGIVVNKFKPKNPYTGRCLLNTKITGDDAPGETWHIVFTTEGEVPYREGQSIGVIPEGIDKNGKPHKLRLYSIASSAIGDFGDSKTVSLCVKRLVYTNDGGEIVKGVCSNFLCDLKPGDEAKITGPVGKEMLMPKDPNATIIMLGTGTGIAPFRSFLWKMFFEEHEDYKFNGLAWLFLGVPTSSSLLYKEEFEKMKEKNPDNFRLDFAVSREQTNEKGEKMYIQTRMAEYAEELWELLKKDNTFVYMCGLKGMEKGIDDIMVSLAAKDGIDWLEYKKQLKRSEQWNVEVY

[5] = biological target: T2, LHCA4(TP)-DHFRHis (Arabidopsis thaliana | not stated); test: as above
T2 sequence (P27521 whole entry, looked up): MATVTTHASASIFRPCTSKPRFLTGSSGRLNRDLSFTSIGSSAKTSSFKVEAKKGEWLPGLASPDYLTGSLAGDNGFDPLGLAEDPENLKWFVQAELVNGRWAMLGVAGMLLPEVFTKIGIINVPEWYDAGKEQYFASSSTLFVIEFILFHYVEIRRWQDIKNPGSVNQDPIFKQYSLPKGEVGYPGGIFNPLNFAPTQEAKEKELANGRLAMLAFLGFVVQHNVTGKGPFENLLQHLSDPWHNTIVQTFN

Chain of atToc132 G-domain bait (Arabidopsis thaliana) (Q9SLF3 456-794): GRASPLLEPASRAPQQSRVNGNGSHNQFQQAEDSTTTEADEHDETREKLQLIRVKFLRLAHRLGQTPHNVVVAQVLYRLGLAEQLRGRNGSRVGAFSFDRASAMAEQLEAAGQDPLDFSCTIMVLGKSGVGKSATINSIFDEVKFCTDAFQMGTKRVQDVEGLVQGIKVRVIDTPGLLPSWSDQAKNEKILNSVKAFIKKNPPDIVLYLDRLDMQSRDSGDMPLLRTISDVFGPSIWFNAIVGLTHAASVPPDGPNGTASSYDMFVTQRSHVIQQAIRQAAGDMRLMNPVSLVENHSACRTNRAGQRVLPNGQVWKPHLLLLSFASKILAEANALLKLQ
Chain of [35S]atToc132AG (Q9SLF3 1-794): as the sequence (Q9SLF3 1-794) above
Chain of [35S]atToc159AG (O81283 1-1092): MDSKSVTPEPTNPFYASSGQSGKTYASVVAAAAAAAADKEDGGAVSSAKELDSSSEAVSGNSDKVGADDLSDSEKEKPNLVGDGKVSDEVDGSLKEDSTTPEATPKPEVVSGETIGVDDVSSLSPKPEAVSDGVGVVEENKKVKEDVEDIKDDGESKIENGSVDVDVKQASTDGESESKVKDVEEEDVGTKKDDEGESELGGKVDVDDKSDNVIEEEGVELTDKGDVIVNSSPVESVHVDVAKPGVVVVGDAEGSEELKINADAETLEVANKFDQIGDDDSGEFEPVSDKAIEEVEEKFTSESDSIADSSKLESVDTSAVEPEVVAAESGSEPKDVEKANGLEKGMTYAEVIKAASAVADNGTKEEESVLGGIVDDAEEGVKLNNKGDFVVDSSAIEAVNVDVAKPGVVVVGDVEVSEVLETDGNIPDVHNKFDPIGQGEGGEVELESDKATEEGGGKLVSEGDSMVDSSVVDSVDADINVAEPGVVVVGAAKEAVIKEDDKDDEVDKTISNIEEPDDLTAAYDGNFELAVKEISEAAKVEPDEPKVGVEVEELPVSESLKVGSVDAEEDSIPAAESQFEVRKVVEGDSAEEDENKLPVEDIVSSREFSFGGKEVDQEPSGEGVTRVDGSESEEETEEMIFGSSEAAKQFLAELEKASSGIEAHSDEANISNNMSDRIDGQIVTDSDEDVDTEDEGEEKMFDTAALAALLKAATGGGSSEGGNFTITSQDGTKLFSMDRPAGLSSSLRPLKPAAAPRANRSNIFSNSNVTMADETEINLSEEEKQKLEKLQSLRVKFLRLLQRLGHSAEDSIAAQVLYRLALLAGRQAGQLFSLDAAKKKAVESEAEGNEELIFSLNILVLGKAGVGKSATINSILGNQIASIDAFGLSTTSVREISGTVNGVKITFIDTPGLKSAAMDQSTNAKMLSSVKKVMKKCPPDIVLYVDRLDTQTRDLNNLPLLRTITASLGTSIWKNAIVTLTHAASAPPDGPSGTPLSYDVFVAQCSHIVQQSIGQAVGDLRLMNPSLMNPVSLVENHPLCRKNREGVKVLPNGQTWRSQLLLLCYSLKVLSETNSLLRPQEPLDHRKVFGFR
Chain of Photosystem I subunit D-1 (Q9S7H1 whole entry): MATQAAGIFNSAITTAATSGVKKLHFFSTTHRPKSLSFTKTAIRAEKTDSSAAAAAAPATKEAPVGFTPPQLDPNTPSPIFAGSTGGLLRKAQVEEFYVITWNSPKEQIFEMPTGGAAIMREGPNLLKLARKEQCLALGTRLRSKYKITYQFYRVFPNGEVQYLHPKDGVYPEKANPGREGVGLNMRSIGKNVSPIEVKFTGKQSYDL
Chain of Photosystem II Subunit P-1 (Q42029 whole entry): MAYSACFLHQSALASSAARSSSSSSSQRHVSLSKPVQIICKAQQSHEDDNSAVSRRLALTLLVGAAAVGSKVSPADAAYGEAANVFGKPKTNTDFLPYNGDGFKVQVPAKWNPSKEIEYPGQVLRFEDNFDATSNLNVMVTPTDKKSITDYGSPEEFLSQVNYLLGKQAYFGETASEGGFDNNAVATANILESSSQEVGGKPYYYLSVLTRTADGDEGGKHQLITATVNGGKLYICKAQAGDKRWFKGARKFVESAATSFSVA
Chain of ATP carrier protein 1 (P31167 whole entry): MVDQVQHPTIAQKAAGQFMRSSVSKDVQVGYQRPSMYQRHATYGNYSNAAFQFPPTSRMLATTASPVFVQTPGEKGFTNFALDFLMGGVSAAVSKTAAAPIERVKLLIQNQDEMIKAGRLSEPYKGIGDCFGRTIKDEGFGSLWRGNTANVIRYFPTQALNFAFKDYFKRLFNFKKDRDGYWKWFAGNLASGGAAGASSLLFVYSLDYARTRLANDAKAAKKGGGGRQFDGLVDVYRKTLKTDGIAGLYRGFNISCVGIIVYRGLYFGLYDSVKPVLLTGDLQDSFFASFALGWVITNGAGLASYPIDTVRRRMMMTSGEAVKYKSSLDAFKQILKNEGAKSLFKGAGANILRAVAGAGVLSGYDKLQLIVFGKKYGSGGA
Chain of THI1 -involved in thiamine synthesis (vitamin B) (Q38814 whole entry): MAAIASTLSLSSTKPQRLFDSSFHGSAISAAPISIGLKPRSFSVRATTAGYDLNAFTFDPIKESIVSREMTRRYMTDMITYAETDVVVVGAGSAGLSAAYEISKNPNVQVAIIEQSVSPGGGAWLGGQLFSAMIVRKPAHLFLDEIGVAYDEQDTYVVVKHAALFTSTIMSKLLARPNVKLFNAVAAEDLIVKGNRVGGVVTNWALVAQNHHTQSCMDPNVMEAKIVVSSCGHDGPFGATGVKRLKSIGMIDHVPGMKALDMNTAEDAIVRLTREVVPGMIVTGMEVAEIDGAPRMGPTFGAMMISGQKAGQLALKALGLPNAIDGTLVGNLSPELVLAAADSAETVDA
Chain of Photosystem I subunit L (Q9SUI4 whole entry): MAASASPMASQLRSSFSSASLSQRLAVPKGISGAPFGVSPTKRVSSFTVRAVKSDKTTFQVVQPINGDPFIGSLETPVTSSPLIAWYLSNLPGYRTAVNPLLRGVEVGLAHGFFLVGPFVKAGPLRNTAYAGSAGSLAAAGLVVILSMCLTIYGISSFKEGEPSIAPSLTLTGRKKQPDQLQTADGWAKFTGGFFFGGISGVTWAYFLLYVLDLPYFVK
Chain of Photosystem I light harvesting complex gene 1 (Q01667 whole entry, one chain of several): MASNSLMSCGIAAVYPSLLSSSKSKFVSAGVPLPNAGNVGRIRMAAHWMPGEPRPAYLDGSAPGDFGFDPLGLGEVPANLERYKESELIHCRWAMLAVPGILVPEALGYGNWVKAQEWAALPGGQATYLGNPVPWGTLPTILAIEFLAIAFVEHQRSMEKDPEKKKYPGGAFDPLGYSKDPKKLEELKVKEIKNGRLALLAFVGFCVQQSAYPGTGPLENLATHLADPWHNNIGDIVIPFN

Substance | % increase in strength of interaction (β-Gal) with Toc132AG against Toc132G [2] | % decrease in strength of interaction (β-Gal) with Toc159G against Toc132G [3] | also measured
ATP carrier protein 1 (from UniProt P31167 1-381) (natural protein) |  |  | % increase in strength of interaction (β-Gal) with 132G against 159G [1]: 50.6%
ATPase, F0 complex, subunit B/B’ (from UniProt Q42139 1-219) (natural protein) |  |  | % increase in strength of interaction (β-Gal) with 132G against 159G [1]: 16.5%
Acyl Carrier Protein 2 (from UniProt P25701 1-136) (natural protein) | 62.2% |  | 
Chaperonin 60 Beta (from UniProt P21240 1-600) (natural protein) | 55.8% |  | 
Copper Chaperone (from UniProt O82089 1-121) (natural protein) | 285% |  | relative β-Gal activity with 132G bait, % lower than with 159G bait [1]: 27%
Glucose-6-phosphate transmembrane transporter (from UniProt Q9M5A9 1-388) (natural protein) | 55.2% |  | 
Light-Harvesting Chlorophyll B-Binding Protein 3 (from UniProt Q9S7M0 1-265) (natural protein) |  | -5.52% | 
Light-harvesting chlorophyll-protein complex II subunit B1 (natural protein) |  |  | relative strength of interaction (β-Gal) with Toc132AG against Toc132G, % change [2]: -25.9%; % increase in strength of interaction (β-Gal) with Toc159G against Toc132G [3]: 26.4%
Lipid-transfer protein (natural protein) |  |  | % increase in strength of interaction (β-Gal) with 132G against 159G [1]: 38.1%
Membrane-associated progesterone binding protein 3 (from UniProt Q9M2Z4 1-233) (natural protein) | 115% |  | relative β-Gal activity with 132G bait, % higher than with 159G bait [1]: 77.5%
PGR5-Like A (from UniProt Q8H112 1-324) (natural protein) |  |  | % increase in strength of interaction (β-Gal) with Toc159G against Toc132G [3]: 13%
Photosystem I P Subunit (from UniProt Q8LCA1 1-174) (natural protein) |  | -28.2% | 
Photosystem I light harvesting complex gene 1 (from UniProt Q01667 1-241) (natural protein) |  |  | % increase in strength of interaction (β-Gal) with Toc159G against Toc132G [3]: 11.3%
Photosystem I reaction centre subunit IV (from UniProt Q9S831 1-143) (natural protein) |  | -27.1% | 
Photosystem I subunit D-1 (from UniProt Q9S7H1 1-208) (natural protein) |  | -12.2% | 
Photosystem I subunit E-2 (from UniProt Q9S714 1-145) (natural protein) |  |  | % reduction in strength of interaction (β-Gal) with Toc132AG against Toc132G [2]: 50%; % increase in strength of interaction (β-Gal) with Toc159G against Toc132G [3]: 14.4%
Photosystem I subunit L (from UniProt Q9SUI4 1-219) (natural protein) |  | -26.8% | 
Photosystem II 5 kD protein (natural protein) |  | -26.1% | 
Photosystem II Subunit P-1 (from UniProt Q42029 1-263) (natural protein) |  | -6.7% | 
Photosystem II Subunit S (from UniProt Q9XF91 1-265) (natural protein) |  | -11.9% | 
Plastidial Dihydrolipoamide Acetyltransferase (from UniProt Q9C8P0 1-465) (natural protein) | 33.6% |  | 
Plastocyanin 2 (from UniProt P42699 1-167) (natural protein) |  | -29.6% | 
Rhomboid-Like Protein 11 (from UniProt Q84MB5 1-280) (natural protein) | 98% |  | 
THI1 -involved in thiamine synthesis (vitamin B) (from UniProt Q38814 1-349) (natural protein) |  |  | % increase in strength of interaction (β-Gal) with 132G against 159G [1]: 52%
ThiaminC (from UniProt O82392 1-644) (natural protein) | 60.6% |  | relative β-Gal activity with 132G bait, % higher than with 159G bait [1]: 25.3%
Thioredoxin M-Type 4 (from UniProt Q9SEU6 1-193) (natural protein) | 93.8% |  | relative β-Gal activity with 132G bait, % higher than with 159G bait [1]: 25%
[35S]atToc132AG (from UniProt Q9SLF3 1-794) (domain or fragment) |  |  | percent bound at 800 pmol FNR1(TP)-DHFR [4]: 8.7%; percent bound at 800 pmol LHCA4(TP)-DHFR [5]: 15%
[35S]atToc159AG (from UniProt O81283 1-1092) (domain or fragment) |  |  | percent bound at 800 pmol FNR1(TP)-DHFR [4]: 51.9%; percent bound at 800 pmol LHCA4(TP)-DHFR [5]: 38.2%
